{"source": "patent US20250340881A1", "about": "“PHARMACEUTICAL COMPOSITION FOR TREATING CANCER COMPRISING FOXM1 MUTANT OR FOXM1 SHRNA” (Industry-University Cooperation Foundation Hanyang …, priority 2022, published 2025)", "molecules": {"B1": {"name": "S25E: FoxM1 phosphorylated point mutant of the S25 residue, expressed by lentivirus in A549 cells (protein, listed as Homo sapiens)", "chain": "MKTSPRRPLILKRRRLPLPVQNAPEETSEEEPKRSPAQQESNQAEASKEVAESNSCKFPAGIKIINHPTMPNTQVVAIPNNANIHSIITALTAKGKESGSSGPNKFILISCGGAPTQPPGLRPQTQTSYDAKRTEVTLETLGPKPAARDVNLPRPPGALCEQKRETCDGEAAGCTINNSLSNIQWLRKMSSDGLGSRSIKQEMEEKENCHLEQRQVKVEEPSRPSASWQNSVSERPPYSYMAMIQFAINSTERKRMTLKDIYTWIEDHFPYFKHIAKPGWKNSIRHNLSLHDMFVRETSANGKVSFWTIHPSANRYLTLDQVFKQQQKRPNPELRRNMTIKTELPLGARRKMKPLLPRVSSYLVPIQFPVNQSLVLQPSVKVPLPLAASLMSSELARHSKRVRIAPKVLLAEEGIAPLSSAGPGKEEKLLFGEGFSPLLPVQTIKEEEIQPGEEMPHLARPIKVESPPLEEWPSPAPSFKEESSHSWEDSSQSPTPRPKKSYSGLRSPTRCVSEMLVIQHRERRERSRSRRKQHLLPPCVDEPELLFSEGPSTSRWAAELPFPADSSDPASQLSYSQEVGGPFKTPIKETLPISSTPSKSVLPRTPESWRLTPPAKVGGLDFSPVQTSQGASDPLPDPLGLMDLSTTPLQSAPPLESPQRLLSSEPLDLISVPFGNSSPSDIDVPKPGSPEPQVSGLAANRSLTEGLVLDTMNDSLSKILLDISFPGLDEDPLGPDNINWSQFIPELQ"}, "B2": {"name": "S25A: FoxM1 protein with Ser25 substituted with alanine, non-phosphorylated point mutant, expressed by lentivirus in A549 cells (protein)", "chain": "B1 chain with E25A", "modifications": "left off: a dimerising Fc or GST", "notes": "FoxM1 protein with Ser25 substituted with alanine, non-phosphorylated point mutant, expressed by lentivirus in A549 cells"}}, "key": {"A549 cancer cells": {"system": "A549 cancer cells", "assay": "Tail vein injection metastatic cancer animal model with A549 cells expressing FoxM1 mutants", "format": "in vivo, mice", "details": "for cancer metastasis to lung and tumorigenesis (tumorigenicity): A549 cells expressing the mutant injected into tail vein of mice; for degree of cancer cell proliferation by H&E and Ki67 staining: lung tissue of injected mice", "protocol": "To observe the tumorigenic potential of cancer cells in animal models, the present inventors aimed to evaluate the tumorigenicity-promoting and -suppressing effects of cancer cells by using cancer cells expressing phosphorylation and non-phosphorylated point mutants of FoxM1 S25 residue.\nSpecifically, A549 cancer cells (2×10^6 cells) stably expressing FoxM1 protein containing point mutations were diluted in PBS and injected into the tail vein of mice. The mice were raised for 8 weeks, and then laparotomy was performed to observe cancer cell metastasis and tumorigenesis in organs."}, "A549 cells [1]": {"system": "A549 cells", "assay": "MTT viability of A549 cells co-cultured with THP-1 cells and Jurkat cells", "format": "cell-based", "details": "ratios 1:0:0, 1:6:0, 1:0:6, 1:6:6, 48 h", "protocol": "(§1) To investigate the polarization into tumor-infiltrating T lymphocytes (TILs) by A549^S25E cells, the expression levels of CD25 and CD29, which were expressed in TILs, were analyzed by qRT-PCR after co-culturing Jurkat cells (1.2×10^5 cells) and A549^S25E cells (4×10^4 cells) for 48 h. As a result, it was observed that there was a significant increase of 3 folds or more, in the expression of CD25 and CD29 in Jurkat cells co-cultured with A549^S25E cells. […] Additionally, to investigate the inhibitory effect of A549^S25A cells on tumor immune evasion by TAMs or TILs in the tumor microenvironment, the viability change was examined by an MTT assay analysis after co-culturing A549 cells expressing the FoxM1 phosphorylation or non-phosphorylated point mutant, THP-1 cells, and Jurkat cells at a ratio of 1:0:0, 1:6:0, 1:0:6, and 1:6:6 for 48 h. […] That is, there was the inhibitory effect of the cells expressing non-phosphorylated point mutant on the tumor immune evasion by TAMs or TILs in the tumor microenvironment. Therefore, the present invention provided the inhibitory effects of the non-phosphorylated point mutant of FoxM1 on tumor immune evasion."}, "A549 cells [2]": {"system": "A549 cells", "assay": "Viability of A549 cells co-cultured with Jurkat cells", "format": "cell-based", "excerpt": "In addition, through the co-culture of the A549 cells expressing the FoxM1 S25E phosphorylated point mutant (A549^S25E) and Jurkat cells as T cells, it was tried to examine the effects on cancer immunity of T cells (FIG. 7D)."}, "lung tissues": {"system": "lung tissues", "assay": "CD68 and CD163 immunostaining and immunoblot of lung tissues of injected mice", "format": "in vivo", "details": "for protein expression of CD68 and CD163, immunoblot: lung tissue lysates", "protocol": "Additionally, the increase of macrophages around the tumor was examined by immunoblot using lung tissue lysates. […] Through the results of this study, it could be observed that the non-phosphorylated point mutant had the effect of inhibiting polarization into tumor-associated macrophages.\nFurthermore, CD68, a marker for a broad range of macrophages, and CD163, a marker for tumor-associated macrophages, were analyzed in lung tissues of mice using immunostaining. It was determined that the expression of both CD68 and CD163 markers was increased in the lung tissues of mice injected with the FoxM1 WT protein over-expressed cells (FIG. 13D). Through the present results, it could be observed that there was an effect of promoting the polarization of M2 tumor-associated macrophages in lung cancer cells expressing the FoxM1 WT protein."}, "A549 cells [3]": {"system": "A549 cells", "assay": "Caspase-3 assay in A549 cells over-expressing FoxM1 point mutants", "format": "cell-based", "details": "doxycycline 3 μg/ml 48 hours, control set to 1", "protocol": "Furthermore, to observe the degree of apoptosis of cancer cells in A549 cells expressing each of the phosphorylation and non-phosphorylated point mutants of FoxM1, a caspase-3 assay was performed to measure the activity of the caspase-3 enzyme (FIG. 5F). A549 cells expressing each protein containing the phosphorylation and non-phosphorylation point mutation of FoxM1 were administered with 3 μg/ml of doxycycline for 48 hours to induce over-expression of each mutant. The cells were lysed and reacted with the fluorescence substrate of caspase-3 (Ac-DEVD-AMC) for 1 hour, and then the fluorescence value (Ex. 380 nm/Emi. 430 nm) was measured using an electron spectrometer (SpectraMax M4 system). The measured fluorescence value indicated the activity of caspase-3, and the relative measurement value in each experimental group was calculated and depicted by a graph, when the measured fluorescence value of the control group set to 1."}, "Jurkat cells": {"system": "Jurkat cells", "assay": "CD25 and CD29 expression (qRT-PCR) in Jurkat cells co-cultured with A549 cells", "format": "cell-based", "details": "co-culture 48 h", "protocol": "as §1"}, "A549 lung cancer cells": {"system": "A549 lung cancer cells", "assay": "Transwell migration assay of A549 cells expressing FoxM1 WT or point mutants", "format": "cell-based", "details": "for migration / motility of cancer cells (in words): Transwell migration assay, A549", "protocol": "To examine the effects of FoxM1 WT, phosphorylation, and non-phosphorylated point mutants on the motility of cancer cells, the migration assay was performed in A549 lung cancer cells expressing mutant proteins.\nSpecifically, 5×10^4 cells of lung cancer cells A549 expressing each of WT, phosphorylation, and non-phosphorylated point mutant of FoxM1 were seeded in an 8.0 μm, 24 well insert, and the inserts were placed in a 24-well plate after medium with 10% fetal bovine serum (FBS) was dispensed in the 24-well plate. For the positive control, 0.5 ml of RPMI1640 (10% FBS) containing 5 ng/ml of TGF-β was used. After 72 hours from cell seeding, 500 μl of 4% paraformaldehyde was dispensed, washed three times with 1×PBS, and stained with 0.05% crystal violet solution for 5 minutes. After 5 minutes, the cells were washed five times with 1×PBS, and the staining intensity was measured using the Odyssey infrared imaging system.\nSpecifically, 5×10^4 cells of lung cancer cells A549 expressing control and FoxM1 WT were seeded in an 8.0 μm, 24 well insert, and the inserts were placed in a 24-well plate after medium with 10% fetal bovine serum (FBS) was dispensed in the 24-well plate. For the positive control, 0.5 ml of RPMI1640 (10% FBS) containing 5 ng/ml of TGF-β was added and used. After 72 hours from cell seeding, 500 μl of 4% paraformaldehyde was dispensed, washed three times with 1×PBS, and stained with 0.05% crystal violet solution for 5 minutes. After 5 minutes, the cells were washed five times with 1×PBS, and the staining intensity was measured using the Odyssey infrared imaging system."}}, "note": "Changes are numbered by the printed parent chain. In names and notes the source's numbering stands.", "data": [{"molecule": "B1", "values": [{"measurement": "cancer metastasis to lung and tumorigenesis (tumorigenicity)", "setting": "A549 cancer cells", "result": "significantly higher"}, {"measurement": "cancer metastasis to lung and tumorigenesis (tumorigenicity)", "setting": "A549 cancer cells; listed as S325E", "result": "highest tumorigenicity"}, {"measurement": "degree of cancer cell proliferation by H&E and Ki67 staining", "setting": "A549 cancer cells", "result": "high"}, {"measurement": "viability change of A549 cells co-cultured with THP-1 and Jurkat cells", "setting": "A549 cells [1]", "result": "significantly increased"}, {"measurement": "viability of A549 cells co-cultured with Jurkat cells", "setting": "A549 cells [2]; ratio 1:2, 48 h", "result": 1.2, "unit": "folds"}, {"measurement": "viability of A549 cells co-cultured with Jurkat cells", "setting": "A549 cells [2]; ratio 1:4, 48 h", "result": 1.3, "unit": "folds"}, {"measurement": "viability of A549 cells co-cultured with Jurkat cells", "setting": "A549 cells [2]; ratio 1:6, 48 h", "result": 1.5, "unit": "folds"}, {"measurement": "protein expression of CD68 and CD163, immunoblot", "setting": "lung tissues", "result": "significantly higher"}, {"measurement": "expression of CD68 and CD163 markers, immunostaining", "setting": "lung tissues; lung tissues of injected mice", "result": "approximately 3 times"}, {"measurement": "activity of caspase-3 (apoptosis)", "setting": "A549 cells [3]", "result": "lowest activity of caspase-3"}, {"measurement": "expression of CD25 and CD29 in Jurkat cells", "setting": "Jurkat cells", "result": "≥ 3", "unit": "folds"}, {"measurement": "migration / motility of cancer cells (in words)", "setting": "A549 lung cancer cells", "result": "promoted the motility of lung cancer cells"}, {"measurement": "cancer cell migration (stained intensity), increase compared to the control group", "setting": "A549 lung cancer cells; Transwell, 72 hours, control set to 1, TGF-β 5 ng/ml positive control", "result": "approximately 6 fold"}, {"measurement": "staining intensity value compared to the control group", "setting": "A549 lung cancer cells; migration assay, 72 hours, control set to 1", "result": "up to 6 times"}]}, {"molecule": "B2", "values": [{"measurement": "cancer metastasis to lung and tumorigenesis (tumorigenicity)", "setting": "A549 cancer cells", "result": "more effective in reducing the metastasis and suppressing the tumorigenic potential"}, {"measurement": "cancer metastasis to lung and tumorigenesis (tumorigenicity)", "setting": "A549 cancer cells; listed as FoxM1 protein containing the non-phosphorylation point mutations", "result": "relatively low"}, {"measurement": "cancer metastasis to lung and tumorigenesis (tumorigenicity)", "setting": "A549 cancer cells; listed as non-phosphorylated point mutant of FoxM1", "result": "no tumors were formed"}, {"measurement": "degree of cancer cell proliferation by H&E and Ki67 staining", "setting": "A549 cancer cells", "result": "significantly low"}, {"measurement": "viability change of A549 cells co-cultured with THP-1 and Jurkat cells", "setting": "A549 cells [1]", "result": "reduced"}, {"measurement": "viability of A549 cells co-cultured with Jurkat cells (in words)", "setting": "A549 cells [2]; compared to WT or phosphorylation mutant, 48 h", "result": "significantly decreased"}, {"measurement": "protein expression of CD68 and CD163, immunoblot", "setting": "lung tissues", "result": "lower"}, {"measurement": "expression of CD68 and CD163 markers, immunostaining (in words)", "setting": "lung tissues; lung tissues of injected mice", "result": "significantly low"}, {"measurement": "activity of caspase-3 (apoptosis)", "setting": "A549 cells [3]", "result": "highest activity of caspase-3"}, {"measurement": "expression of CD25 and CD29 in Jurkat cells (in words)", "setting": "Jurkat cells", "result": "significantly inhibiting effect"}, {"measurement": "migration / motility of cancer cells (in words)", "setting": "A549 lung cancer cells", "result": "reduced"}, {"measurement": "migration / motility of cancer cells (in words)", "setting": "A549 lung cancer cells; listed as S25 non-phosphorylated point mutant of FoxM1", "result": "effectively suppressed the motility of lung cancer cells"}]}]}
